Biological target: T1, human HVEM Fc (human, UniProt Q92956 39-202)
T1 construct: also called wild-type HVEM-Fc; not shown: human IgG1 Fc
T1 sequence: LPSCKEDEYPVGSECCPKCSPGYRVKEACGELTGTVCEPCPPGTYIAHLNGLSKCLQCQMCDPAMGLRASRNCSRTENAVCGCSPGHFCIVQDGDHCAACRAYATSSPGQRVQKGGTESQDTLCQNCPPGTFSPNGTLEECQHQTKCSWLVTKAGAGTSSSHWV
Test: flow cytometry on EL4 cells expressing human CD160

B1: human CD160 on cells (receptor)
chain: GCINITSSASQEGTRLNLICTVWHKKEEAEGFVVFLCKDRSGDCSPETSLKQLRLKRDPGIDGVGEISSQLMFTISQVTPLHSGTYQCCARSQKSGIRLQGHFFSILFTETGNYTVTGLKQRQHLEFSHNEGTLS
notes: whole, on cells; Transduced into EL4 or 293T cells; endogenous on NK92 and blood NK cells in the functional rows
B1: binds.

From US20210122788A1 (SANFORD BURNHAM PREBYS MEDICAL DISCOVERY INSTITUTE, published 2021)
